Experimental data reported in paper PMC5664961 (Biochemical Journal, 2017).
Blank lines part the entries; values can stand above or below the binder they belong to.

How the values were obtained:
[1] = molecular target: the molecule itself; experiment: SEC-MALS; BTB domains alone, injected at 50 µM; Shodex KW-803; 50 mM HEPES pH 7.5, 150 mM NaCl, 1 mM TCEP
[2] = molecular target: T1, human Cul3 N-terminal domain (NTD, residues M1-L388) with the engineered mutations I342R and L346D (human, UniProt Q13618 1-388, I342R | L346D); experiment: ITC; KCTD5 titrated into Cul3 NTD; 25°C; 50 mM HEPES pH 7.5, 150 mM NaCl, 1 mM TCEP, 5% glycerol; single-binding site model; conditions: both partners purified
T1 construct: Cullin-3, human, UniProt Q13618, N-terminal domain residues M1-L388, with I342R and L346D introduced to stabilize the isolated Cullin-repeat domain; only the vector pNIC-CTHF is named, the tag is inferred from it; The general methods say that eluted proteins were cleaved with TEV protease; also called Cullin3; Cul3 NTD; source: E. coli BL21(DE3)R3-pRARE2, purified (nickel-sepharose, SEC)

[3] = molecular target: T2, human Cul3 N-terminal domain (NTD, residues M1-L388) with the engineered mutations I342R and L346D (human, UniProt Q13618 1-388, I342R | L346D); experiment: ITC; KCTD protein titrated into Cul3 in the cell; 15°C; 50 mM HEPES pH 7.5, 150 mM NaCl, 1 mM TCEP, 5% glycerol; single-binding site model; conditions: both partners purified
T2 construct: Cullin-3, human, UniProt Q13618, N-terminal domain residues M1-L388, with the stabilising mutations I342R and L346D; The methods say in general that the eluted His-tagged proteins were cleaved with TEV protease; also called Cullin3; Cul3 NTD; source: E. coli BL21(DE3)R3-pRARE2, purified (nickel-sepharose, TEV cleavage, SEC)

[4] = molecular target: T1, human Cul3 N-terminal domain (NTD, …); experiment: SAXS; KCTD-Cul3 complexes co-purified over S200, ~10% more Cul3 added, 10 mg/ml injected onto Shodex KW404 at 20°C; 50 mM HEPES pH 7.5, 150 mM NaCl, 1 mM TCEP, 5% glycerol; curves compared with a 5 : 5 model; conditions: both partners purified
[5] = molecular target: the molecule itself; experiment: as above
[6] = molecular target: T1, human Cul3 N-terminal domain (NTD, …); experiment: ITC; KCTD protein titrated into Cul3 NTD; 15°C; 50 mM HEPES pH 7.5, 150 mM NaCl, 1 mM TCEP, 5% glycerol; single-binding site model; conditions: both partners purified
[7] = molecular target: the molecule itself; experiment: crystal structure; BTB domains alone, sitting-drop vapour diffusion at 20 and 4°C, data at 100 K
[8] = molecular target: T2, human Cul3 N-terminal domain (NTD, …); experiment: ITC; KCTD5 titrated into Cul3 in the cell; 25°C; 50 mM HEPES pH 7.5, 150 mM NaCl, 1 mM TCEP, 5% glycerol; single-binding site model; conditions: both partners purified
[9] = molecular target: T1, human Cul3 N-terminal domain (NTD, …); experiment: SEC; KCTD protein alone and mixed with Cul3 NTD at a molar ratio of 1 : 1; UV 280 nm traces; injected at 50 µM; 50 mM HEPES pH 7.5, 150 mM NaCl, 1 mM TCEP; conditions: both partners purified

B2: KCTD13 BTB domain (residues G27-L144) (domain or fragment, human, UniProt Q8WZ19 27-144, looked up)
chain: GPAAYGLKPLTPNSKYVKLNVGGSLHYTTLRTLTGQDTMLKAMFSGRVEVLTDAGGWVLIDRSGRHFGTILNYLRDGSVPLPESTRELGELLGEARYYLVQGLIEDCQLALQQKRETL
notes: TEV cleavage stated in general in the methods; also called BACURD1; source: E. coli BL21(DE3)R3-pRARE2, purified (nickel-sepharose, TEV cleavage, SEC); not shown: His6, N-terminal, cleaved
- Ka [3]: 1.01e+07 M⁻¹
- stoichiometry N [3]: 0.87

B4: KCTD5 BTB domain (residues G40-R145) (domain or fragment)
chain: not shown
notes: Pentamer by SEC-MALS; TEV cleavage stated in general in the methods; source: E. coli BL21(DE3)R3-pRARE2, purified (nickel-sepharose, TEV cleavage, SEC); not shown: His6, N-terminal, cleaved
- Ka [8]: 1.8e+07 M⁻¹
- stoichiometry N [8]: 0.81

B5: KCTD5 BTB + CTD multi-domain construct (residues G40-M234) (domain or fragment, human, UniProt Q9NXV2 40-234, looked up)
chain: GSVSKWVRLNVGGTYFLTTRQTLCRDPKSFLYRLCQADPDLDSDKDETGAYLIDRDPTYFGPVLNYLRHGKLVINKDLAEEGVLEEAEFYNITSLIKLVKDKIRERDSKTSQVPVKHVYRVLQCQEEELTQMVSTMSDGWKFEQLVSIGSSYNYGNEDQAEFLCVVSKELHNTPYGTASEPSEKAKILQERGSRM
notes: TEV cleavage stated in general in the methods; source: E. coli BL21(DE3)R3-pRARE2, purified (nickel-sepharose, TEV cleavage, SEC); not shown: His6, N-terminal, cleaved
- Ka [8]: 7.95e+08 M⁻¹
- stoichiometry N [8]: 0.94

B9: human KCTD16 BTB domain (residues G16-E133) (domain or fragment, UniProt Q68DU8 16-133, looked up)
chain: GSAVPNSFPEVVELNVGGQVYFTRHSTLISIPHSLLWKMFSPKRDTANDLAKDSKGRFFIDRDGFLFRYILDYLRDRQVVLPDHFPEKGRLKREAEYFQLPDLVKLLTPDEIKQSPDE
notes: KCTD16, human, UniProt Q68DU8, BTB domain residues G16-E133; cleaved with TEV protease by the general methods; source: E. coli BL21(DE3)R3-pRARE2, purified (nickel-sepharose, TEV cleavage, SEC); not shown: His6, N-terminal, cleaved
- stoichiometry N [1]: 5

B10: human KCTD10 BTB domain (residues G26-E135) with F61L (domain or fragment, UniProt Q9H3F6 26-135, looked up)
chain: GTSPSSKYVKLNVGGALYYTTMQTLTKQDTMLKAMLSGRMEVLTDSEGWILIDRCGKHFGTILNYLRDGAVPLPESRREIEELLAEAKYYLVQGLVEECQAALQNKDTYE
notes: KCTD10, human, UniProt Q9H3F6, BTB domain residues G26-E135; cleaved with TEV protease by the general methods; source: E. coli BL21(DE3)R3-pRARE2, purified (nickel-sepharose, TEV cleavage, SEC); not shown: His6, N-terminal, cleaved
- stoichiometry N [7]: 4

The next lines start with results.

- Kd [2]: 55 nM
B1: human KCTD5 BTB domain (residues G40-R145) (domain or fragment)
chain: not shown
notes: KCTD5, human, UniProt Q9NXV2, BTB domain residues G40-R145; cleaved with TEV protease by the general methods; source: E. coli BL21(DE3)R3-pRARE2, purified (nickel-sepharose, TEV cleavage, SEC); not shown: His6, N-terminal, cleaved
- stoichiometry N [1]: 5

- stoichiometry N [4]: 1 KCTD : Cul3 (5 : 5)
- Kd [6]: 100 nM
B3: human KCTD13 BTB domain (residues G27-L144) (domain or fragment, UniProt Q8WZ19 27-144, looked up)
chain: GPAAYGLKPLTPNSKYVKLNVGGSLHYTTLRTLTGQDTMLKAMFSGRVEVLTDAGGWVLIDRSGRHFGTILNYLRDGSVPLPESTRELGELLGEARYYLVQGLIEDCQLALQQKRETL
notes: KCTD13, human, UniProt Q8WZ19, BTB domain residues G27-L144; cleaved with TEV protease by the general methods; also called BACURD1; source: E. coli BL21(DE3)R3-pRARE2, purified (nickel-sepharose, TEV cleavage, SEC); not shown: His6, N-terminal, cleaved
- stoichiometry N [5]: 5
- stoichiometry N [7]: 4

- Kd [2]: 1 nM
B6: human KCTD5 BTB + CTD multi-domain construct (residues G40-M234) (domain or fragment, UniProt Q9NXV2 40-234, looked up)
chain: GSVSKWVRLNVGGTYFLTTRQTLCRDPKSFLYRLCQADPDLDSDKDETGAYLIDRDPTYFGPVLNYLRHGKLVINKDLAEEGVLEEAEFYNITSLIKLVKDKIRERDSKTSQVPVKHVYRVLQCQEEELTQMVSTMSDGWKFEQLVSIGSSYNYGNEDQAEFLCVVSKELHNTPYGTASEPSEKAKILQERGSRM
notes: KCTD5, human, UniProt Q9NXV2, BTB + CTD residues G40-M234; cleaved with TEV protease by the general methods; also called multi-domain KCTD5; source: E. coli BL21(DE3)R3-pRARE2, purified (nickel-sepharose, TEV cleavage, SEC); not shown: His6, N-terminal, cleaved

- Ka [3]: 1.15e+07 M⁻¹
- stoichiometry N [3]: 0.92
B7: SHKBP1 BTB domain (residues G18-S120) (domain or fragment, human, UniProt Q8TBC3 18-120, looked up)
chain: GEVIHLNVGGKRFSTSRQTLTWIPDSFFSSLLSGRISTLKDETGAIFIDRDPTVFAPILNFLRTKELDPRGVHGSSLLHEAQFYGLTPLVRRLQLREELDRSS
notes: as for B5

- stoichiometry N [9]: 1 KCTD : Cul3 (5 : 5)
- Kd [6]: 87 nM
B8: human SHKBP1 BTB domain (residues G18-S120) (domain or fragment, UniProt Q8TBC3 18-120, looked up)
chain: GEVIHLNVGGKRFSTSRQTLTWIPDSFFSSLLSGRISTLKDETGAIFIDRDPTVFAPILNFLRTKELDPRGVHGSSLLHEAQFYGLTPLVRRLQLREELDRSS
notes: cleaved with TEV protease by the general methods; source: E. coli BL21(DE3)R3-pRARE2, purified (nickel-sepharose, TEV cleavage, SEC); not shown: His6, N-terminal, cleaved
